Data as given in patent US20190309025A1.

Key:
[1] = target: BzHuKD VLPs (Zika virus BPH2015 VLPs with E106/107 GL to KD, expressed by plasmid pEBZHu2-3 KD) (Zika virus strain BPH2015); assay: ratio of antibody end-point titers on wt and KD VLPs
[2] = target: MR766KD VLPs (Zika virus MR766 VLPs with E106/107 GL to KD, expressed by plasmid pEZMRprME KD) (Zika virus strain MR766) (UniProt Q32ZE1); assay: as above
[3] = target: BzHuwt VLPs (Zika virus BPH2015 prM and E VLPs expressed by plasmid pEBZHu2-3, pr1-Ala deletion clone) (Zika virus strain BPH2015); assay: antibody end-point titration on VLPs (COS-1 supernatant)
[4] = target: MR766wt VLPs (Zika virus MR766 prM and E virus-like particles expressed by plasmid pEZMRprME1-8) (Zika virus strain MR766) (UniProt Q32ZE1); assay: as above

In the case of “flavivirus group-cross reactive murine monoclonal antibody 4G2”, the Fold changes (BzHuwt VLPs against BzHuKD VLPs) [1] was > 729 fold, the Fold changes (MR766wt VLPs against MR766KD VLPs) [2] was > 2190 fold and the Antibody end-point titers [3] was 729000. For the same substance, the Antibody end-point titers [4] was > 2.19e+06.
